The test concerns the target T1, Protective antigen (Bacillus anthracis, UniProt P13423).
T1 chain: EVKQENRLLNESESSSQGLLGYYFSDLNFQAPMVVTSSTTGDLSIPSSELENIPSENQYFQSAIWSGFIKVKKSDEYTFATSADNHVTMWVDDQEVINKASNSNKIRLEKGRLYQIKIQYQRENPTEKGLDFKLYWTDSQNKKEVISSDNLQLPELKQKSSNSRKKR

What is called Kd is the equilibrium constant for the complex coming apart. Higher therefore signals lower affinity.

B1: CMG2 (protein)
chain: QEQPSCRRAFDLYFVLDKSGSVANNWIEIYNFVQQLAERFVSPEMRLSFIVFSSQATIILPLTGDRGKISKGLEDLKRVSPVGETYIHEGLKLANEQIQKAGGLKTSSIIIALTDGKLDGLVPSYAEKEAKISRSLGASVYCVGVLDFEQAQLERIADSKEQVFPVKGGFQALKGIINSILAQSCTEILELQPSSVCVGEEFQIVLSGRGFMLGSRNGSVLCTYTVNETYTTSVKPVSVQLNSMLCPAPILNKAGETLDVSVSFNGGKSVISGSLIVTATECSNG
As for B1, binding was put at a Kd of 0.46 nM.
